# Results reported in paper PMC6957250 (Experimental and molecular pathology, 2016).
# Read-outs that look alike come from different tables or passages of the source.
# B1: antibody domain D6 (VHH)
# VH: EVQLVESGGGLVQPGGSLRLSCAASGFTFSNYGMSWVRQAPGKGLEWIGSIYYSGGSTNYNPSLKGSLVISRDNSKNTLYLQMNSLAEDTATYYCARESIDYWGQGTLVTVSS
# B2: antibody domain E11 (VHH)
# VH: EVQLVESGGGLVQPGGSLRLSCAASGFTFSSYGMSWVRQAPGKGLEWIGEVNHSGGSTNYNPSLKGSFVISRDNSKNTLYLQMNSLAEDTAVYYCARVGSFDFWGQGTLVTVSS
# What was measured:
# Assay in all cases: ELISA
# [1] = biological target: recombinant CD32B ectodomain (Homo sapiens (assumed), UniProt P31994)
# recombinant CD32B ectodomain, sequence (P31994 43-217): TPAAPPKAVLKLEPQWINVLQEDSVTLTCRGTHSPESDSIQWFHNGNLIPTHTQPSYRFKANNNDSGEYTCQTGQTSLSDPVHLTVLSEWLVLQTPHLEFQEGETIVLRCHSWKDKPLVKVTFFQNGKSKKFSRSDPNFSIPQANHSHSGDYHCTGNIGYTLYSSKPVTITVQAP
# [2] = biological target: recombinant CD16B ectodomain (Homo sapiens, UniProt O75015)
# recombinant CD16B ectodomain, sequence (O75015 whole entry, looked up, the tested form may be a part): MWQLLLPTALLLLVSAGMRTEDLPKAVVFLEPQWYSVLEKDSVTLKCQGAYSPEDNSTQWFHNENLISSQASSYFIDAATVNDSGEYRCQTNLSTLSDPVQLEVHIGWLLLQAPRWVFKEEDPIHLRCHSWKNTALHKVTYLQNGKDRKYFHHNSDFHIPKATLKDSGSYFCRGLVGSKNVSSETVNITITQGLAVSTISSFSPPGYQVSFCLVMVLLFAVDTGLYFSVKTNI
# [3] = biological target: recombinant CD64A ectodomain (Homo sapiens (assumed), UniProt P12314)
# recombinant CD64A ectodomain, sequence (P12314 16-292): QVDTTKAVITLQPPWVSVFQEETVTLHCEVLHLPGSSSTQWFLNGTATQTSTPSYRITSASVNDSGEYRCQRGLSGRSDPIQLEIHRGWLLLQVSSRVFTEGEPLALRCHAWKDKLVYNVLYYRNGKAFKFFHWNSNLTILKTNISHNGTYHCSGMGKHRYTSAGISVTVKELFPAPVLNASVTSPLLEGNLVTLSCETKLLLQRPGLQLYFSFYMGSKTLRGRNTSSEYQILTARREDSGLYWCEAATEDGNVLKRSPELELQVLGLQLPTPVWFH
# [4] = biological target: recombinant CD32A ectodomain (Homo sapiens (assumed), UniProt P12318)
# recombinant CD32A ectodomain, sequence (P12318 34-217): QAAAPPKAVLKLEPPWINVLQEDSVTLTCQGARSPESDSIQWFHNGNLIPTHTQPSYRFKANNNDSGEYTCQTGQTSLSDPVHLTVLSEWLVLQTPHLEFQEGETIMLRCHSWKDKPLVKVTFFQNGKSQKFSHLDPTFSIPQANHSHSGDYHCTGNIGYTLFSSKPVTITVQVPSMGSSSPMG
# [5] = biological target: T1, recombinant CD16A-mFc (CD16A-158V extracellular domain fused to monomeric Fc) (Homo sapiens, allotype 158V, UniProt P08637, strain)
# T1 sequence (P08637 17-208, change not shown): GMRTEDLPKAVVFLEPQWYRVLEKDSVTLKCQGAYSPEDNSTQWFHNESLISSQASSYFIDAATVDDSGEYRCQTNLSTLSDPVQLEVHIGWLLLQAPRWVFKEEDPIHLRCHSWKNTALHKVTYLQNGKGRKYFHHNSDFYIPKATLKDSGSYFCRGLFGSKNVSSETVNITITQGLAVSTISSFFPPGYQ
# [6] = biological target: T1, recombinant CD16A-mFc (CD16A-158V …); remark: listed apart in the source
# [7] = biological target: CD16A-158F-mFc (CD16A carrying the 158F isoform, monomeric Fc fusion) (Homo sapiens, allotype 158F, UniProt P08637)
# CD16A-158F-mFc (CD16A carrying the 158F isoform, monomeric Fc fusion), sequence (P08637 17-208): as the sequence (P08637 17-208, change not shown) above
binding result [1],binding result [2],binding result [3],binding result [4],EC50 [5],EC50 [6],binding result [7],Binder
no binding,no binding,no binding,no binding,~60 nM,4 nM,binds,B1
no binding,no binding,no binding,no binding,–,8 nM,binds,B2
